From patent publication US20210380660A1 (OREGON HEALTH AND SCIENCE UNIVERSITY, published 2021) come the findings set out here.

Usually Kd stands for the equilibrium constant for the complex coming apart. The term IC50 denotes the midpoint of a concentration-inhibition curve.

Positions count from the first letter of the chain named. In names and notes the source's numbering stands.

Experiment [1] has as its target T1, recombinant human CD74 (C27S) (human, UniProt P04233 1-216).
T1 chain: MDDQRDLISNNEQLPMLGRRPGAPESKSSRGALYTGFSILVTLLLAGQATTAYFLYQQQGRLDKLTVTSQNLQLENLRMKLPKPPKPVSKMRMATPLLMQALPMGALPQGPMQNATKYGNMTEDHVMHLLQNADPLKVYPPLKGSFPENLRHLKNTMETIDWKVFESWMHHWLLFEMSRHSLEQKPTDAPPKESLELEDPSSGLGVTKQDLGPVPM
Description: direct binding ELISA on rhCD74 (legend of FIG. 6A). (An ELISA detects its analyte on a solid surface through an enzyme-linked reagent.)

Experiment [2] addresses T1, recombinant human CD74 (C27S). Nature of the experiment: competition ELISA: MIF coated, rhCD74 with serially diluted construct, bound rhCD74 detected.
The target is the same in experiment [3]. Description: direct binding ELISA, rhCD74 (C27S) coated, construct detected with anti-MOG antibody, one-site fit.
The target is the same in experiment [4]. Description: competition ELISA against MIF for rhCD74.
The target in a further experiment is T2, mouse CD74 (mouse, UniProt P04441-2 1-215, limits assumed).
T2 construct: Native protein pulled down from splenocyte lysate; also called mCD74; immunoprecipitated mouse CD74
T2 sequence (looked up): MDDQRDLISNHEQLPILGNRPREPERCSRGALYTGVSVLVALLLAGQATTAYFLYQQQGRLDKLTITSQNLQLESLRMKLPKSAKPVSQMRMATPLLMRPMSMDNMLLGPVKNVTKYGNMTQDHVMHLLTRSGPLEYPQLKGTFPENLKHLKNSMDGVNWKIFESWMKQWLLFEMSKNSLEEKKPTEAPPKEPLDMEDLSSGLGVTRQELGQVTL
Nature of the experiment: competition with FITC-labelled P2 peptide on immunoprecipitated mouse CD74, gel densitometry, one-site fit. As to the method:
For competition experiments, ELISA plates were coated with MIF at room temperature at a concentration of 0.5 μg/ml in TBS. Plates were then blocked overnight with 5% BSA in TBS and 0.0125% T20 followed by the addition of a competitive mix containing rhCD74 with serially diluted DRα1 constructs prepared in 5% BSA/TBS plus 0.0125% T20 for 1.5 hours at 25° C. Bound rhCD74 was detected with a monoclonal antibody that specifically recognizes human CD74 in a region away from the putative MIF/D-DT binding site. Absorbance at 450 nm was determined and data were analyzed with Prism, the parameters were calculated with the competition equation included in the software. For competition between DRα1-hMOG-35-55 and P2 peptide (see next section), mouse CD74 was immunoprecipitated from DR*1501 Tg mouse splenocytes and a competition experiment was set. 2.5 μl of P2 peptide were used with increasing concentrations of DRα1-hMOG-35-55 protein. Bound peptide was eluted from the immunoprecipitation with 2% SDS and analyzed in a 16.5% PAG Tris/Tricine. The gel was scanned for FITC and fluorescence was quantified by densitometry. P2 fluorescence vs. DRα1 competitor was plotted and data analyzed with Prism. The relative density values were fit to a One-binding site equation. […]

B1: DRhQ (other)
chain: MEVGWYRPPFSRVVHLYRNGKGGGGSLVPRGSGGGGIKEEHVIIQAEFYQNPDQSGEFMFDFDGDEIFHVDMAKKETVWRLEEFGRFASFEAQGALANIAVDKANLEIMTKRSNYTPITN
notes: Made in E. coli; also called DRα1-hMOG-35-55 with glutamine substitution; L50Q
B1: the Kd in experiment [1] amounted to 89 nM; in experiment [3], 91.1 nM. Besides, the concentration for half-maximal inhibition (IC50) came out at 298 nM in experiment [2] and 280 nM in experiment [4].

B2: DRα1-mMOG-35-55 (other)
chain: B1 chain with P8S, Q50L
notes: also called DRα1 with mouse MOG-35-55 peptide
For B2, the IC50 in experiment [2] is 937 nM.

B3: DRα1-hMOG-35-55 (other)
chain: B1 chain with Q50L
notes: also called DRα1-human(h)MOG-35-55; DRα1 with human MOG-35-55 peptide
For the molecule B3, the Kd in experiment [1] is 650 nM; in experiment [3] it was 702 nM; with mouse CD74, 750 nM. For the same molecule, the IC50 came to 1640 nM in experiment [2] and 1600 nM in experiment [4].

B4: DRmQ (other)
chain: B1 chain with P8S
notes: also called DRα1-mMOG-35-55 with glutamine substitution
In the case of B4, the IC50 in experiment [2] turned out to be 828 nM.
